For two substances, RNA ligase activity on the short 10-bp RNA duplex substrate, percent of substrate converted to product, time course up to 120 min (0.15 μM complex, 0.6 μM Dr-Archease) and Kd results are on record in PMC12135372.

By Kd is commonly meant the equilibrium constant for the complex coming apart.

Data set [1] addresses Truncated Danio rerio tRNA ligase complex (His6-RTCB, FAM98B, CGI99, ASW 1-83, DDX1 693-740) (Danio rerio) (UniProt Q6NZS4).
In data set [2] the target is Full-length five-subunit Danio rerio tRNA ligase complex (DDX1, RTCB, FAM98B, CGI99, ASW) (Danio rerio) (UniProt F1R2L8).
The target of data set [3] is T1, Dr-tRNA-LC-TR (DDX1 C-term, RTCB, FAM98B, CGI99, ASW N-term) (Danio rerio) (UniProt F1R2L8+Q6NZS4+A0PJS3+Q7ZUH1).
T1 sequence 1: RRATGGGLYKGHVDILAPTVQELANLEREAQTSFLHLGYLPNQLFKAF
T1 sequence 2: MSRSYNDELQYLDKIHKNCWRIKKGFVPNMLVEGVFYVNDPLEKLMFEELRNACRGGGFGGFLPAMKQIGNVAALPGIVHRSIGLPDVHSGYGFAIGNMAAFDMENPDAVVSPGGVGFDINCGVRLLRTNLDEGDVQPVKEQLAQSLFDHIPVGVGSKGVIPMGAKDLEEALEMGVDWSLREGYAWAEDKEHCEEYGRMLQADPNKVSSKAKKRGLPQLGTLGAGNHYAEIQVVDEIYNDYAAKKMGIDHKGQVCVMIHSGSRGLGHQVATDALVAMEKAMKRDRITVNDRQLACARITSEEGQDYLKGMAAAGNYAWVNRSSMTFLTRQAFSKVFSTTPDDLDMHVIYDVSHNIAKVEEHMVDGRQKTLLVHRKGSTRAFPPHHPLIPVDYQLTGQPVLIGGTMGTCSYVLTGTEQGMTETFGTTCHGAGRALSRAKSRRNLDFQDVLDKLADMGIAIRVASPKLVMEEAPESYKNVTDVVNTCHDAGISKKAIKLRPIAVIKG
T1 sequence 3: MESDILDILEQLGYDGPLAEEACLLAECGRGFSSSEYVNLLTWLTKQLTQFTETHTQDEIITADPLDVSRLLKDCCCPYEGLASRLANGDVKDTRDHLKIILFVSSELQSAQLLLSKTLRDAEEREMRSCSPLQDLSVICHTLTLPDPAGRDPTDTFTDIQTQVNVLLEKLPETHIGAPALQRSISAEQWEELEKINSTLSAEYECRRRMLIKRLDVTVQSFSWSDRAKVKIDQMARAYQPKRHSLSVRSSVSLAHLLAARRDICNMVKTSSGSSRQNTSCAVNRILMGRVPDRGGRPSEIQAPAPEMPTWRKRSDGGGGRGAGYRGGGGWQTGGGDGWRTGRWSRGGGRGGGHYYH
T1 sequence 4: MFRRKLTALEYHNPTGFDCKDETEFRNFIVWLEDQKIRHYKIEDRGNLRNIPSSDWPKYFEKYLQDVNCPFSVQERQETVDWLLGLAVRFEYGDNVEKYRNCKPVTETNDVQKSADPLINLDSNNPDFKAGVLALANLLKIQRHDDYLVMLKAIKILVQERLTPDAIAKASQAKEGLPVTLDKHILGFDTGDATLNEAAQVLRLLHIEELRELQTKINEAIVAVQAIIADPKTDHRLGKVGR
Briefly: MST. To be noted: 2 mM GTP, 2 mM MnCl2 (buffer B, implied by text); MST: 25 mM Hepes pH 7.5, 150 mM NaCl, 1 mM DTT, with or without 2 mM GTP and 2 mM MnCl2, 20 nM Cy5-tRNA, temperature not stated; crosslinking: 50 mM Tris pH ….

The target of data set [4] is Dr-tRNA-LC-FL (DDX1, RTCB, FAM98B, CGI99, ASW) (Danio rerio) (UniProt F1R2L8+Q6NZS4+A0PJS3+Q7ZUH1). Briefly: MST. The note with it: 2 mM GTP, 2 mM MnCl2 (buffer B, implied by text); MST: 25 mM Hepes pH 7.5, 150 mM NaCl, 1 mM DTT, with or without 2 mM GTP and 2 mM MnCl2, 20 nM Cy5-tRNA, temperature not stated; crosslinking: 50 mM Tris pH ….

Take Danio rerio Archease (natural protein): the RNA ligase activity on the short 10-bp RNA duplex substrate, percent of substrate converted to product, time course up to 120 min (0.15 μM complex, 0.6 μM Dr-Archease) in data set [1] turned out to be 85%; in data set [2], 60%.

Regarding “GGCUCCAGUGGCGCAAUCGGUUAGCGCGCGGUACUUAUAAUGCCGAGGUUGUGAGUUCGAGCCUCACCUGGAGCACCA [tRNAIle]”, the Kd in data set [3] is 89.4 nM; in data set [4], 94 nM.
